No end group written: not given here. TAMRA = 5(6)-carboxytetramethylrhodamine
B1: ATG8A (purified) (natural protein)
chain: MAKSSFKISNPLEARMSESSRIREKYPDRIPVIVEKAGQSDVPDIDKKKYLVPADLTVGQFVYVVRKRIKLGAEKAIFVFVKNTLPPTAALMSAIYEEHKDEDGFLYMTYSGENTFG

Tests used:
ATG8A (purified) = biological target: B1; assay: FP
sAIM3 = assay: FP
cAIM mut = assay: FP
HsUFM1 (purified) = HsUFM1 (purified) (human, UniProt P61960 1-85); assay: ITC
GABARAP (purified) = GABARAP (purified) (human, UniProt O95166 3-116); assay: ITC
Sequence of GABARAP (purified) (O95166 3-116): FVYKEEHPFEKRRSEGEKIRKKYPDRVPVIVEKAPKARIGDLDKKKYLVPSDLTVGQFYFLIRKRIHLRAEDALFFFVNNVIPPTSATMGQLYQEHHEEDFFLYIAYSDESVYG

Sequence of HsUFM1 (purified) (P61960 whole entry): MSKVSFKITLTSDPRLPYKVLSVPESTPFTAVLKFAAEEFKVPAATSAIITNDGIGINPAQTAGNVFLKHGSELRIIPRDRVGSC

## {TAMRA}-DLGSYEIVNASDI [peptide derived from the cAIM of the AtC53 IDR]
ATG8A (purified)
  Kd: 62.5 µM

## B1
sAIM3
  Kd: 176 µM
cAIM mut
  Kd: 94.3 µM

## {TAMRA}-AADSIDWDITVET [peptide derived from sAIM1 (AtC53 IDR)]
ATG8A (purified)
  Kd: 97.6 µM

## GPLHDDNEWNISVVDD [UBA5 LIR]
HsUFM1 (purified)
  Kd: 7.51 µM

## {TAMRA}-ETPEIDWDVSMVEEV [peptide derived from sAIM2 (AtC53 IDR)]
ATG8A (purified)
  Kd: 56.8 µM

B2: HsC53 wt (purified) (natural protein)
chain: MEDHQHVPIDIQTSKLLDWLVDRRHCSLKWQSLVLTIREKINAAIQDMPESEEIAQLLSGSYIHYFHCLRILDLLKGTEASTKNIFGRYSSQRMKDWQEIIALYEKDNTYLVELSSLLVRNVNYEIPSLKKQIAKCQQLQQEYSRKEEECQAGAAEMREQFYHSCKQYGITGENVRGELLALVKDLPSQLAEIGAAAQQSLGEAIDVYQASVGFVCESPTEQVLPMLRFVQKRGNSTVYEWRTGTEPSVVERPHLEELPEQVAEDAIDWGDFGVEAVSEGTDSGISAEAAGIDWGIFPESDSKDPGGDGIDWGDDAVALQITVLEAGTQAPEGVARGPDALTLLEYTETRNQFLDELMELEIFLAQRAVELSEEADVLSVSQFQLAPAILQGQTKEKMVTMVSVLEDLIGKLTSLQLQHLFMILASPRYVDRVTEFLQQKLKQSQLLALKKELMVQKQQEALEEQAALEPKLDLLLEKTKELQKLIEADISKRYSGRPVNLMGTSL
GABARAP (purified)
  Kd: 20.9 µM
